# T1: α-bungarotoxin (UniProt P60615 22-95)
# T1 sequence: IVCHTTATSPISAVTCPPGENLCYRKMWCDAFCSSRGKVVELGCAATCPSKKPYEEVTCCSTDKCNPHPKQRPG
# Assays:
# mAb 198 = test: competition ELISA: fragment preincubated with mAb 198, binding of mAb 198 to coated Torpedo AChR read
# Procedure: Microtiter plates were coated with Torpedo AChR (1 μg/ml) in PBS and incubated overnight at 4° C.
# α-bungarotoxin = target: T1, α-bungarotoxin; test: blot overlay with 125I-α-BTX, 20 µg fragment
Binder,IC50 (mAb 198) [nM],binding result (α-bungarotoxin)
"Hα1-205 expressed with no fusion partner (receptor, The 5' primer adds an initiation codon (and a Gly codon) before residue 1; also called 'less native' fragment) SEHETRLVAKLFKDYSSVVRPVEDHRQVVEVTAGLQLIQLINVDEVNQIVTTNVRLKQGDMVDLPRPSCVTLGVPLFSHLQDEQWVDYNLKWNPDDYGGVKKIHIPSEKIWRPDLVLYNNADGDFAIVKFTKVLLQYTGHITWTPPAIFKSYCEIIVTHFPFDEQNCSMKLGTWTYDGSVVAINPESDQPDLSNFMESGEWVIKESRGWKHSVTYSCCPDTPYLDITYHF",3300,
"Hα1-210 fused to thioredoxin (Trx-Hα1-210) (receptor, Solubilised from inclusion bodies in 9 M urea and dialysed; also called Trx-H1α-210; 'more native' fragment; not shown: thioredoxin (Trx) encoded by the pThioHis-A vector (Invitrogen); the vector's thioredoxin may) SEHETRLVAKLFKDYSSVVRPVEDHRQVVEVTAGLQLIQLINVDEVNQIVTTNVRLKQGDMVDLPRPSCVTLGVPLFSHLQDEQWVDYNLKWNPDDYGGVKKIHIPSEKIWRPDLVLYNNADGDFAIVKFTKVLLQYTGHITWTPPAIFKSYCEIIVTHFPFDEQNCSMKLGTWTYDGSVVAINPESDQPDLSNFMESGEWVIKESRGWKHSVTYSCCPDTPYLDITYHFVMQRL",300,binds

# Reference: patent publication US20020081652A1 (YEDA RESEARCH AND DEVELOPMENT, published 2002)
